According to paper doi:10.1101/2021.06.01.446672 (bioRxiv, 2021):

B1: Photoactive yellow protein from Rhodobacter capsulatus (Rc-PYP) (natural protein, UniProt O69138 1-124, looked up)
chain: MEIIPFGTNDIDNILAREPARAESLPFGAVLLDRMGRIAKYNKAEGLIAGRDPSTVIGRDFFNEIAPCAKGKRFHGEFLKFNRTGQANVMLDYKFNYKGAEVAVKIHLKSQPDGQFCWLFVKRA
modifications: chromophore (protonated in pUV, deprotonated in pBL; isomerised on photoexcitation)
B2: PYP-binding protein (PBP) from Rhodobacter capsulatus (natural protein, UniProt D5AR21 1-142, looked up)
chain: MDIVGQLMTDNGRYTFRSDTLNLRVTGDFPEWVMAAAAEMVGIVARREVDSKIDELQALVEFGEASEIEIDSVKYDAKERFEIIPQCVVTMGRTDYRWVAPEGRAKHCATFDGNPVTRVHDMSMTRNDSFLDNENGVDTSGH

Assays:
[1] = biological target: B2; assay: transient grating
[2] = biological target: B2; assay: transient absorption
SEC = biological target: the molecule itself; assay: SEC

Binder: B1
- kon [1]: 1.1e+06 M⁻¹ s⁻¹
- kon [2]: 1.2e+06 M⁻¹ s⁻¹

Binder: B2
- stoichiometry N (SEC): 2
